Test results reported in patent publication US20250109201A1.
pKd: −log10 of the molar value.

Legend:
[1] = target: recombinant human LILRA1/LIR-6 (Sino Biological 17220-H08H-100) (human) (UniProt O75019); test: SPR, LILRA and LILRB family panel
[2] = target: ECD-His tagged human ILT2 haplotype PE01 (human) (UniProt Q8NHL6); test: SPR, LILRA and LILRB family panel
[3] = target: recombinant human LILRA3/ILT6 (Sino Biological 13549-H08H-100) (human) (UniProt Q8N6C8); test: SPR, LILRA and LILRB family panel
[4] = target: full-length ILT2 expressed on Jurkat cells (human) (UniProt Q8NHL6); test: cell-based or functional assay
[5] = target: human ILT2 extracellular and transmembrane domains expressed on CHO cells (human) (UniProt Q8NHL6); test: flow cytometry, blocking of HLA-G-Fc-PE on CHO cells with high human ILT2
[6] = target: complement component C1q (Sigma/C1740-1 mg) (human) (UniProt P02745); test: ELISA, antibody coated, C1q in solution, OD 450 nm
[7] = target: complement component C1q (Sigma/C1740-1 mg) (human) (UniProt P02745); test: ELISA, antibody coated in a dilution series, C1q added at 2 µg/mL, biotinylated anti-C1q and streptavidin-HRP
[8] = target: human ILT2 extracellular and transmembrane domains expressed on CHO cells (human) (UniProt Q8NHL6); test: flow cytometry, CHO cells with high human ILT2
[9] = target: human ILT2 extracellular and transmembrane domains expressed on CHO cells (human) (UniProt Q8NHL6); test: flow cytometry, CHO cells with low human ILT2

Chain of recombinant human LILRA1/LIR-6 (Sino Biological 17220-H08H-100) (human) (O75019 17-461 limits assumed): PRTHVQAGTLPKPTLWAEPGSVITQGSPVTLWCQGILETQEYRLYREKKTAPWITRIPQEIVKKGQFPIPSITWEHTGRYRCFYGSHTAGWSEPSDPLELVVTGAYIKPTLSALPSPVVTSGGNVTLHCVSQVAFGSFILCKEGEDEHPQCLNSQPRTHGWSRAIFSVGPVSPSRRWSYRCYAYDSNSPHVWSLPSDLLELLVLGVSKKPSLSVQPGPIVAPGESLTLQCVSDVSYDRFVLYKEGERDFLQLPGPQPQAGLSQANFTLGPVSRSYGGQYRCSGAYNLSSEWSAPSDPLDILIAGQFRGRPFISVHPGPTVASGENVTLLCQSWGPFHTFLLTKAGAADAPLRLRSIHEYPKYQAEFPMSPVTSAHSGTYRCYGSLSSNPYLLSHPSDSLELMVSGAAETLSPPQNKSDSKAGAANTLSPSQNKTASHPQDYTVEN
Chain of complement component C1q (Sigma/C1740-1 mg) (human) (P02745 23-245 limits assumed, chain 1 of 3): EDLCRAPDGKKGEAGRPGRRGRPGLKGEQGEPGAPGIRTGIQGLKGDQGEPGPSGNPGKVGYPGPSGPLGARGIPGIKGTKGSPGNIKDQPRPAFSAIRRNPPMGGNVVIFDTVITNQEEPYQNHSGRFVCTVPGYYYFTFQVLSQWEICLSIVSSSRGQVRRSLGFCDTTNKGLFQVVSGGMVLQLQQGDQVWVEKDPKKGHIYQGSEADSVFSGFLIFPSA
Chain of complement component C1q (Sigma/C1740-1 mg) (human) (P02746 28-253 limits assumed, chain 2 of 3, further chain): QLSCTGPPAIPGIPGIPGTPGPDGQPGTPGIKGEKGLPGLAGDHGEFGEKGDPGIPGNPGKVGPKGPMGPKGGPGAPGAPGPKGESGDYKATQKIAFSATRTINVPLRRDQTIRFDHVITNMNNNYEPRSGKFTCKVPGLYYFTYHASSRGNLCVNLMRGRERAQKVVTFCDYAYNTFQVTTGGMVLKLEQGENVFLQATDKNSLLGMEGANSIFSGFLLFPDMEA
Chain of complement component C1q (Sigma/C1740-1 mg) (human) (P02747 29-245 limits assumed, chain 3 of 3, further chain): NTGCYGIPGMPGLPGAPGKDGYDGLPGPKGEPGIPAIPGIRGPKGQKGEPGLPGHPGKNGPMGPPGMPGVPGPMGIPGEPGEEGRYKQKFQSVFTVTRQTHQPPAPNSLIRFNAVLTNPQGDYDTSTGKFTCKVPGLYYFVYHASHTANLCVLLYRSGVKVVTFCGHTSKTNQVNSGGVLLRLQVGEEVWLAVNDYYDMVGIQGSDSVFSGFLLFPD
Chain of ECD-His tagged human ILT2 haplotype PE01 (human) (Q8NHL6 24-458): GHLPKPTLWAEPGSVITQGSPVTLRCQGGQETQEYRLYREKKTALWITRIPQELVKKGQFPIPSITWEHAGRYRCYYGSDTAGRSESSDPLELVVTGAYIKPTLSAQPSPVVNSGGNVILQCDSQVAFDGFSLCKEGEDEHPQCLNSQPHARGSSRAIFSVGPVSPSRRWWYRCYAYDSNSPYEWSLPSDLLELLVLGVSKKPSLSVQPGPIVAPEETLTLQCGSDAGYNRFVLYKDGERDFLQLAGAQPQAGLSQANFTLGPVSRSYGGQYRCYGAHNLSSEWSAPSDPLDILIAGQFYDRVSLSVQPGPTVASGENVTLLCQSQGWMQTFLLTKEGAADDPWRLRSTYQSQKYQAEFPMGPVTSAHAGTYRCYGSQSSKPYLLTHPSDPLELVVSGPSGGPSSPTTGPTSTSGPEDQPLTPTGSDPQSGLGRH
Chain of recombinant human LILRA3/ILT6 (Sino Biological 13549-H08H-100) (human) (Q8N6C8 24-439 limits assumed): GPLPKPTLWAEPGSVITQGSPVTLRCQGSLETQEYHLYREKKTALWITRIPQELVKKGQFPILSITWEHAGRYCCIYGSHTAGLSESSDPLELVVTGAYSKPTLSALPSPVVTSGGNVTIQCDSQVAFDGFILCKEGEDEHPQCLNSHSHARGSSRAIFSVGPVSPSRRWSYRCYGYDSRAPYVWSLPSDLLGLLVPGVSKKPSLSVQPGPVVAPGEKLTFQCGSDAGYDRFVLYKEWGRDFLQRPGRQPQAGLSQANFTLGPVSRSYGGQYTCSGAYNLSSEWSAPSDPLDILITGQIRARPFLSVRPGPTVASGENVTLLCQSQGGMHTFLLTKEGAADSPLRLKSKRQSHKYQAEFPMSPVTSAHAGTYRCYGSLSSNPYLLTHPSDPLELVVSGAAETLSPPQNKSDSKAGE
Chain of human ILT2 extracellular and transmembrane domains expressed on CHO cells (human) (Q8NHL6 24-482 limits assumed): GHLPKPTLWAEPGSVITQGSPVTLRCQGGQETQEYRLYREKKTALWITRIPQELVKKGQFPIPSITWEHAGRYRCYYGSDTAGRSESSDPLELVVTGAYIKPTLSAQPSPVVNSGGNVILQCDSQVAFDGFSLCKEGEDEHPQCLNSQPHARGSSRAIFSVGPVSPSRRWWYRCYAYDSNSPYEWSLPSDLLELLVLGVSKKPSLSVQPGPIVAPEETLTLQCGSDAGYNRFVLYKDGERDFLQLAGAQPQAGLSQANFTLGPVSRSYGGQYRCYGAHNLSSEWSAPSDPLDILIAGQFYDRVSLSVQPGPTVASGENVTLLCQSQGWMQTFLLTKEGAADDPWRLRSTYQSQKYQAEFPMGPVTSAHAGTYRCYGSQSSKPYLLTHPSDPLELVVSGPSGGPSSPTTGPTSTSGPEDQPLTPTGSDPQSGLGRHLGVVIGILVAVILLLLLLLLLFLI
Chain of full-length ILT2 expressed on Jurkat cells (human) (Q8NHL6 24-650): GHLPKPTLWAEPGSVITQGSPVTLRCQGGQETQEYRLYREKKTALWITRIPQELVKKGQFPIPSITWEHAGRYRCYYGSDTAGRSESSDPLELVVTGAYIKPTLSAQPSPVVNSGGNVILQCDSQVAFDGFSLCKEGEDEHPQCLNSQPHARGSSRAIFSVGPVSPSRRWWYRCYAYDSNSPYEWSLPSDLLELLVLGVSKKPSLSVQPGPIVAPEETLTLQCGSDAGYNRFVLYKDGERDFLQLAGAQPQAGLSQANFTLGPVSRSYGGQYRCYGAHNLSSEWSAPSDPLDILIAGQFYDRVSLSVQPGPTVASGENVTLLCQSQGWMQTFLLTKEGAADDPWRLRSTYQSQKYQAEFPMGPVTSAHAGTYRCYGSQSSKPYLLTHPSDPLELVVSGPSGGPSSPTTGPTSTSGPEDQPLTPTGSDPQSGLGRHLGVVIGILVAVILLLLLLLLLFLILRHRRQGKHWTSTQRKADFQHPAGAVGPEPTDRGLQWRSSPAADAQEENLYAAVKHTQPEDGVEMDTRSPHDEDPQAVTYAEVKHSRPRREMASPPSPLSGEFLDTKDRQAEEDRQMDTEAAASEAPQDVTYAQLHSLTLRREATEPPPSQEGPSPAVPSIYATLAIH

pKd [1]	pKd [2]	pKd [3]	Substance	other results
8.14	8.44	7.82	HP-F1 (Invitrogen, #16-5129-82) (antibody)	FcγRIIIa-NFAT luciferase signaling, Average AUC normalized to HP-F1 [4]: 100; FcγRIIIa-NFAT luciferase signaling, EC50 [4]: 32.8 µg/mL; IC50 [5]: 0.307 µg/mL
7.49	9.82	8.22	VMP55 (Novus, #NBP2-50475PE) (antibody)	–

Second part, the substance before the results:

Substance	pKd [1]	pKd [2]	pKd [3]	other results
1Q-G2 (Creative, #DCABH-4494) (antibody)	8.30	8.77	7.89	–
4F9 (Biorad, #MCA2515F) (antibody)	7.40	9.05	7.59	–
238145 (Abcam, #EPR22861-6) (antibody)	9.09	9.62	> 10.00	–
292305 (R&D Systems, #MAB20171) (antibody)	6.59	8.62	7.00	–
IgG4 isotype control (CrownBio/C00045-5) (antibody)	–	–	–	Average AUC [6]: 0.5
adalimumab (Myonex), an anti-TNFα IgG1 antibody	–	–	–	EC50 (read off the curve) [7]: 3 µg/mL
isotype control (VRC01 IgG4) (antibody)	–	–	–	AUC [8]: 570; AUC [9]: 542
nivolumab (Evidentric GmbH), an anti-PD-1 IgG4 antibody	–	–	–	Average AUC [6]: 0.52
